Biological target: the molecule itself
Assay: light scattering

B1: Bacillus subtilis MreB A277Q K305D double mutant, Strep-tagged (natural protein)
chain: MFGIGARDLGIDLGTANTLVFVKGKGIVVREPSVVALQTDTKSIVAVGNDAKNMIGRTPGNVVALRPMKDGVIADYETTATMMKYYINQAIKNKGMFARKPYVMVCVPSGITAVEERAVIDATRQAGARDAYPIEEPFAAAIGANLPVWEPTGSMVVDIGGGTTEVAIISLGGIVTSQSIRVAGDEMDDAIINYIRKTYNLMIGDRTAEAIKMEIGSAEAPEESDNMEIRGRDLLTGLPKTIEITGKEISNALRDTVSTIVEAVKSTLEKTPPELAQDIMDRGIVLTGGGALLRNLDKVISEETDMPVLIAEDPLDCVAIGTGKALEHIHLFKGKTR
binding result: binds

Reference: publication PMC3727927 (Molecular Biology of the Cell, 2013)
